Measurements published in PMC6264593 (2018).

Assays:
Aβ monomer = Aβ monomer (Homo sapiens, UniProt P05067); assay: SPR
Aβ protofibrils = Aβ protofibrils (Homo sapiens, UniProt P05067); assay: SPR

Kd (Aβ monomer): 34 µM
Kd (Aβ protofibrils): 0.0008 µM
B1: Gantenerumab (antibody, V domains shown)
VH: QVELVESGGGLVQPGGSLRLSCAASGFTFSSYAMSWVRQAPGKGLEWVSAINASGTRTYYADSVKGRFTISRDNSKNTLYLQMNSLRAEDTAVYYCARGKGNTHKPYGYVRYFDVWGQGTLVTVSS
VL: DIVLTQSPATLSLSPGERATLSCRASQSVSSSYLAWYQQKPGQAPRLLIYGASSRATGVPARFSGSGSGTDFTLTISSLEPEDFATYYCLQIYNMPITFGQGTKVEIK
